# In paper PMC1781933, “Structure-based engineering of papillomavirus major capsid L1: controlling particle assembly” (Virology Journal, 2007):
# Molecular target: the molecule itself
# Assay: SEC; Superdex-200, L1 eluted from the glutathione column after thrombin cleavage; step: L1 chains to pentamer
protein,measurement,value
"full-length HPV16 L1 (natural protein, major capsid protein L1 of human papillomavirus type 16, full-length clone in pGEX-2T; Purified as pentamers; forms T = 7 particles in assembly buffer; also called wild-type L1; major capsid L1 protein; source: E. coli, expressed as GST-L1 fusion from pGEX-2T, glutathione column, cleaved with thrombin, Superdex-200; not shown: GST, N-terminal, cleaved) MSLWLPSEATVYLPPVPVSKVVSTDEYVARTNIYYHAGTSRLLAVGHPYFPIKKPNNNKILVPKVSGLQYRVFRIHLPDPNKFGFPDTSFYNPDTQRLVWACVGVEVGRGQPLGVGISGHPLLNKLDDTENASAYAANAGVDNRECISMDYKQTQLCLIGCKPPIGEHWGKGSPCTNVAVNPGDCPPLELINTVIQDGDMVDTGFGAMDFTTLQANKSEVPLDICTSICKYPDYIKMVSEPYGDSLFFYLRREQMFVRHLFNRAGAVGENVPDDLYIKGSGSTANLASSNYFPTPSGSMVTSDAQIFNKPYWLQRAQGHNNGICWGNQLFVTVVDTTRSTNMSLCAAISTSETTYKNTNFKEYLRHGEEYDLQFIFQLCKITLTADVMTYIHSMNSTILEDWNFGLQPPPGGTLEDTYRFVTSQAIACQKHTPPAPKEDPLKKYTFWEVNLKEKFSADLDQFPLGRKFLLQAGLKAKPKFTLGKRKATPTTSSTSTTAKRKKRKL",stoichiometry N,5
